Reference: PMC10479434

Tests used:
α-synuclein (wild type) [1] = biological target: α-synuclein (wild type) (UniProt P37840)
α-synuclein (wild type) [2] = biological target: α-synuclein (wild type) (UniProt P37840); remark: listed apart in the source

Chain of HtrA1ΔNTD (residues 156–480) (Q92743 156-480, stated change not applied): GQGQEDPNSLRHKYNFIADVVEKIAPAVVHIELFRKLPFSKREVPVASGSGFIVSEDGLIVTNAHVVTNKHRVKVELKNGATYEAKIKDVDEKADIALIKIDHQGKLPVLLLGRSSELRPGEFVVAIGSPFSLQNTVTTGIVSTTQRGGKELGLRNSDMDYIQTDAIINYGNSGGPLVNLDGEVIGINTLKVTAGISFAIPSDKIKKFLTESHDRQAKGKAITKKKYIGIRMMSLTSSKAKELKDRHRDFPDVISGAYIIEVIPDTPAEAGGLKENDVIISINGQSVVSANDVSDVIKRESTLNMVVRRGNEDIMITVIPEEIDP

- ThT fluorescence of α-syn (25 μM) fibrillized with HtrA1 (5 μM) for 48h, relative to the signal without HtrA1 (% of the ThT signal without HtrA1) (α-synuclein (wild type) [1]): 20
- sedimentation assay, α-syn (25 μM) with HtrA1 (5 μM), 24–72h: share of α-syn in the insoluble fraction (HtrA1 itself stays soluble with α-syn) (% of α-syn insoluble) (α-synuclein (wild type) [2]): < 10
Substance: HtrA1ΔNTD (residues 156–480) (from UniProt Q92743 156-480) (domain or fragment)
